Experimental data as given in patent US20220089746A1 (INSTITUT NATIONAL DE LA RECHERCHE SCIENTIFIQUE, published 2022).
Read-outs that look alike come from different tables or passages of the source.

B1: Nanobody 217_C02 (SEQ ID NO: 52) (VHH)
VHH: EVQLQASGGGFVQPGGSLRLSCAASGTYSSIEVMGWFRQAPGKEREFVSAISFEPNEFAYYADSVKGRFTISRDNSKNTVYLQMNSLRAEDTATYYCASSVEWRQNGKPNTASYWGQGTQVTVSS
notes: Humanized synthetic single domain antibody, his-tagged, made in E. coli; 181 aa with the tag; also called NB #12
B2: Nanobody 219_F09 (VHH)
VHH: EVQLQASGGGFVQPGGSLRLSCAASGAYSFESGMGWFRQAPGKEREFVSAISSDADLFSYYADSVKGRFTISRDNSKNTVYLQMNSLRAEDTATYYCAAFSSGGELSYWGQGTQVTVSS
notes: 175 aa with the tag, so CDR3 has 9 residues, which fits CDR set (a), (e) or (h)
B3: Nanobody 214_H05 (VHH)
VHH: EVQLQASGGGFVQPGGSLRLSCAASGTTSNSSGMGWFRQAPGKEREFVSAISWDHGILTYYADSVKGRFTISRDNSKNTVYLQMNSLRAEDTATYYCAHGYVHFNMTHRHISDYWGQGTQVTVSS
notes: Humanized synthetic single domain antibody (hs2dAb library, Hybrigenics); 181 aa with the tag, so CDR3 has 15 residues, which fits CDR set (c), (k) or (l)
B4: Nanobody 218_B04 (VHH)
VHH: EVQLQASGGGFVQPGGSLRLSCAASGRTSSQDIMGWFRQAPGKEREFVSAISDYSGGNVYYADSVKGRFTISRDNSKNTVYLQMNSLRAEDTATYYCAFLGEEKTSWYWGQGTQVTVSS
notes: as for B2
B5: Nanobody 218_D11 (VHH)
VHH: EVQLQASGGGFVQPGGSLRLSCAASGDTSRFDVMGWFRQAPGKEREFVSAISWWSSDHIYYADSVKGRFTISRDNSKNTVYLQMNSLRAEDTATYYCAYGEYPPRMNRRPYWGQGTQVTVSS
notes: 178 aa with the tag, so CDR3 has 12 residues, which fits CDR set (b) or (d)
B6: Nanobody 219_A01 (VHH)
VHH: EVQLQASGGGFVQPGGSLRLSCAASGGGYDWDAMGWFRQAPGKEREFVSAISSNNNGSRYYADSVKGRFTISRDNSKNTVYLQMNSLRAEDTATYYCAADQYWGQGTQVTVSS
notes: 169 aa with the tag, so CDR3 has 3 residues
B7: Nanobody 216_D11 (VHH)
VHH: EVQLQASGGGFVQPGGSLRLSCAASGDTSESTSMGWFRQAPGKEREFVSAISRSSTWDAYYADSVKGRFTISRDNSKNTVYLQMNSLRAEDTATYYCAMADIFDHPQNASFMKYWGQGTQVTVSS
notes: 181 aa with the tag, so CDR3 has 15 residues, which fits CDR set (c) or (l)
B8: Nanobody 219_F02 (VHH)
VHH: EVQLQASGGGFVQPGGSLRLSCAASGSTSYSSTMGWFRQAPGKEREFVSAISFDGTSKPYYADSVKGRFTISRDNSKNTVYLQMNSLRAEDTATYYCAAGEWEALMWPPVHDFWIYYWGQGTQVTVSS
notes: 184 aa with the tag, so CDR3 has 18 residues, which fits CDR set (g) or (i)
B9: Nanobody 218_A01 (VHH)
VHH: EVQLQASGGGFVQPGGSLRLSCAASGAGSRSDVMGWFRQAPGKEREFVSAISGFWGWTTYYADSVKGRFTISRDNSKNTVYLQMNSLRAEDTATYYCALGGAPGQTGYWGQGTQVTVSS
notes: as for B2
B10: Nanobody 216_A01 (SEQ ID NO: 6) (VHH)
VHH: EVQLQASGGGFVQPGGSLRLSCAASGRYSRIEIMGWFRQAPGKEREFVSAISSTPSSNEYYADSVKGRFTISRDNSKNTVYLQMNSLRAEDTATYYCARWDWHSWDTYWGQGTQVTVSS
notes: Humanized synthetic single domain antibody, his-tagged, made in E. coli; 175 aa with the tag; also called NB #2
B11: Nanobody 218_F09 (VHH)
VHH: EVQLQASGGGFVQPGGSLRLSCAASGTTSNGEVMGWFRQAPGKEREFVSAISFGAGSSEYYADSVKGRFTISRDNSKNTVYLQMNSLRAEDTATYYCAASWYHSSIGSMSYWGQGTQVTVSS
notes: as for B5
B12: Nanobody 219_H09 (VHH)
VHH: EVQLQASGGGFVQPGGSLRLSCAASGSTSYGETMGWFRQAPGKEREFVSAISYYSTRKPYYADSVKGRFTISRDNSKNTVYLQMNSLRAEDTATYYCAIVAYIYADGVRGYHQKIDYWGQGTQVTVSS
notes: as for B8

Experiments:
[1] = target: T1, recombinant human galectin-7 (human, UniProt P47929 1-136); assay: SPR (BIACore), human GAL-7 on the sensor surface, Nb as analyte
T1 construct: Prototypic galectin with one CRD; also called hGAL-7; human GAL-7
Procedure: SPR analysis. Binding affinities of his-tagged GAL-7-specific Nbs was measured by surface plasmon resonance (SPR) using a BIACore® system. Briefly, a buffer flow was run across the sensor surface, which has previously been coated with human GAL-7, then the Nbs were introduced into the device and allowed to bind to the immobilized antigen. The stability of the binding between GAL-7 and the Nbs was measured and used to calculate the dissociation constant (Kd) of the Nbs for human GAL-7.

[2] = target: T1, recombinant human galectin-7; assay: ELISA of the selected nanobody clone on hGAL-7 with His-tagged MBP as control; y axis 'ELISA Ratio'; no concentration given
[3] = target: T1, recombinant human galectin-7; assay: phage selection and ELISA (FIG. 3A)
[4] = target: T1, recombinant human galectin-7; assay: cell-based or functional assay
[5] = target: T1, recombinant human galectin-7; assay: cell-based or functional assay; remark: listed apart in the source

T1 sequence (P47929 whole entry): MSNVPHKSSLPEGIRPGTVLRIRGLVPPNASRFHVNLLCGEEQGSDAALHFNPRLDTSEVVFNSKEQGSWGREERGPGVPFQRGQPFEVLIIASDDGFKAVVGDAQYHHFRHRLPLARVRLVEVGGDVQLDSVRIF

| Binder | binding result [2] | further results |
| --- | --- | --- |
| B1 |  | Kd [1]: 1.5 µM; koff [1]: 0.00165 s⁻¹; kon [1]: 1100 M⁻¹ s⁻¹ |
| B2 | binds |  |
| B3 | binds |  |
| B4 | binds |  |
| B5 | binds |  |
| B6 |  | binding result [3]: binds |
| B7 | binds |  |
| B8 | binds |  |
| B9 | binds |  |
| B10 |  | IC50 (read off the curve): inhibition of hGAL-7-induced apoptosis of Jurkat T cells (Annexin V, flow cytometry) [4]: ~3 µM; Kd [1]: 0.123 µM; koff [1]: 0.00348 s⁻¹; kon [1]: 28400 M⁻¹ s⁻¹; IC50 (read off the curve): inhibition of hGAL-7-induced apoptosis of Jurkat T cells (Annexin V, flow cytometry) [5]: ~2 µM |
| B11 | binds |  |
| B12 | binds |  |
